# Numbering of substitutions follows the chain as printed.
# B1: 369_D01 (antibody, V domains shown)
# VH: EVQLLESGGGLVQPGGSLRLSCAASGFTFSDYGMNWVRQAPGKGLEWVASINYNGGYTGYADSVKGRFTISRDNSKNTLYLQMNSLRAEDTAVYYCARSANWHDTALDYWGQGTLVTVSS
# VL: DIQMTQSPSSLSASVGDRVTITCRASQSILTYLNWYQQKPGKAPKLLIYAATSRASGVPSRFSGSGSGTDFTLTISSLQPEDFATYYCQQSYSNPLTFGGGTKVEIK
# B2: 370_E06 (antibody, V domains shown)
# VH: B1 VH with D31S, A49S, S50G, G55S, T58K, G59S
# VL: B1 VL with T31S, L47V, A51T, R54L, S93D, N94T
# B3: 370_A12 (antibody, V domains shown)
# VH: B1 VH with D31S, S50G, G59S
# VL: B1 VL with R54L, S93D, N94S
# B4: 369_E02 (antibody, V domains shown)
# VH: B1 VH with S30D, D31S, A49S, S50N
# VL: B1 VL with L30V, T31S, L33V, A51T, A55H, S93D
# B5: 369_G04 (antibody, V domains shown)
# VH: B1 VH with S30D, D31S, G33S, A49S, S50G, G59S
# VL: B1 VL with L33V, A51T, A55H, S93E, N94T
# B6: 370_A04 (antibody, V domains shown)
# VH: B1 VH with S30D, D31S, G33S, A49S, S50G, G59S
# VL: B1 VL with L30I, S93D
# B7: 369_F03 (antibody, V domains shown)
# VH: B1 VH with A49S, S50G, G55S, G59S
# VL: B1 VL with L30V, T31S, L33V, R54L, S93D, N94S
# B8: 369_H05 (antibody, V domains shown)
# VH: B1 VH with D31S, S50N
# VL: B1 VL with L30V, T31S, L33V
# B9: 369_H06 (antibody, V domains shown)
# VH: B1 VH with D31S, S50N, T58K, G59S
# VL: B1 VL with L30V, T31S, L33V, S93D, N94T
# B10: 369_G06 (antibody, V domains shown)
# VH: B1 VH with S30D, D31S, S50G, G59S
# VL: B1 VL with T31S, L33V, L47V, S93E
# B11: 370_E03 (antibody, V domains shown)
# VH: B1 VH with D31S, A49S, T58K
# VL: B1 VL with L47V, A50Y, T52S, S53N, S93D, N94S
# B12: 369_D02 (antibody, V domains shown)
# VH: B1 VH with G33S, A49S, S50N, G55S
# VL: B1 VL with T31S, L47V, A51V, S93D, N94T
# B13: 369_D04 (antibody, V domains shown)
# VH: B1 VH with S30D, D31S, A49S, S50G, G59S
# VL: B1 VL with T31S, L33V, L47V, S93N, N94L
# B14: 369_F10 (antibody, V domains shown)
# VH: B1 VH with S30D, D31S, A49S, S50N, G55S, T58K, G59S
# VL: B1 VL with L30V, A51V, S93D, N94L
# B15: 370_C05 (antibody, V domains shown)
# VH: B1 VH with D31S, G33S, S50G, G55S
# VL: B1 VL with T31S, L33V, L47V, S93N, N94S
# B16: 369_F01 (antibody, V domains shown)
# VH: B1 VH with D31S, A49S, S50G, T58K, G59S
# VL: B1 VL with L33V, S93E, N94L
# B17: 370_A01 (antibody, V domains shown)
# VH: B1 VH with D31S, G33S, A49S, S50G, G55S, T58K, G59S
# VL: B1 VL with L30S, L47V, S93N, N94L
# B18: 370_E09 (antibody, V domains shown)
# VH: B1 VH with S30D, Y32S, G33S, N35H, A49S, S50N, R98K
# VL: B1 VL with T31S, L33V, L47V, S93E, N94L
# B19: 370_C01 (antibody, V domains shown)
# VH: B1 VH with S30D, D31S, G33S, A49S, S50G, G55S
# VL: B1 VL with L47V, R54L, S93D, N94T
# B20: 370_D11 (antibody, V domains shown)
# VH: B1 VH with S30D, D31S, G33S, A49S, S50G
# VL: B1 VL with L30V, T31S, S93D, N94T
# B21: 370_D04 (antibody, V domains shown)
# VH: B1 VH with S30D, D31S, G33S, S50N, G55S, T58K
# VL: B1 VL with L47V, S93D
# B22: 369_G12 (antibody, V domains shown)
# VH: B1 VH with D31S, G33S, S50N
# VL: B1 VL with L33V, L47V, A55H, Y92D, S93N, N94T
# B23: 369_H09 (antibody, V domains shown)
# VH: B1 VH with S30D, G33S, A49S, S50G, G59S
# VL: B1 VL with T31S, L33V, A51V, R54L, S93E, N94S
# B24: 369_F02 (antibody, V domains shown)
# VH: B1 VH with D31S, G55S, T58K, G59S
# VL: B1 VL with L30V, T31S, L47V, S93D, N94T
# B25: 369_G01 (antibody, V domains shown)
# VH: B1 VH with D31S, G33S, A49S, S50N, G55S, T58K, G59S
# VL: B1 VL with T31S, L33V, N94S
# B26: 369_F11 (antibody, V domains shown)
# VH: B1 VH with S30D, D31S, A49S, S50N, G55S, T58K, G59S
# VL: B1 VL with L30I, T31S, S93D, N94L
# B27: 370_C03 (antibody, V domains shown)
# VH: B1 VH with D31S, S50G, T58K
# VL: B1 VL with A50Y, A51V, S53N, A55Q, N94S
# B28: 370_C09 (antibody, V domains shown)
# VH: B1 VH with S30D, D31S, A49S, S50G, G59S
# VL: B1 VL with L30I, T31S, L47V, R54L, N94T
# B29: 369_D12 (antibody, V domains shown)
# VH: B1 VH with S30D, D31S, G33S, S50G, G55S, G59S
# VL: B1 VL with T31S, R54L, S93D, N94T
# B30: 369_F06 (antibody, V domains shown)
# VH: B1 VH with S30D, G33S, S50G, T58K
# VL: B1 VL with L30V, T31S, L33V, L47V, S93D, N94S
# B31: 370_C08 (antibody, V domains shown)
# VH: B1 VH with D31S, S50G, T58K
# VL: B1 VL with L30S, T31N, A51V, S93D, N94S
# B32: 369_E11 (antibody, V domains shown)
# VH: B1 VH with D31S, A49S, S50N, G59S
# VL: B1 VL with L30I, T31S, R54L, S93D, N94T
# B33: 370_F05 (antibody, V domains shown)
# VH: B1 VH with D31S, A49S, S50G, G55S, G59S
# VL: B1 VL with L30V, T31S, L33V, L47V, S93E, N94T
# B34: 370_F07 (antibody, V domains shown)
# VH: B1 VH with S30D, D31S, G33S, A49S, S50N, T58K
# VL: B1 VL with T31S, S93N, N94L
# B35: 369_G11 (antibody, V domains shown)
# VH: B1 VH with D31S, G33S, S50N, G55S, T58K
# VL: B1 VL with R54L, S93E, N94S
# B36: 369_E12 (antibody, V domains shown)
# VH: B1 VH with D31S, N35H, G55S, G59S
# VL: B1 VL with L30I, T31S, S93E, N94S
# What was measured:
# Goat anti-Human Kappa = molecular target: T1, Goat anti-Human Kappa; experiment: ELISA, positive control
# T1 construct: Positive control of the ELISA; also called biotinylated goat anti-human kappa light chain
# Method in brief: (§1)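 ELISA measured binding of ACVR2A-specific monoclonal antibodies to human and mouse ACVR2A. Biotinylated goat anti-human kappa light chain served as positive control and human Fc as negative control.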
# Mouse ACVR2A = Mouse ACVR2A (mouse, UniProt P27038 20-135, limits assumed); experiment: ELISA
# Chain of Mouse ACVR2A (P27038 20-135 limits assumed): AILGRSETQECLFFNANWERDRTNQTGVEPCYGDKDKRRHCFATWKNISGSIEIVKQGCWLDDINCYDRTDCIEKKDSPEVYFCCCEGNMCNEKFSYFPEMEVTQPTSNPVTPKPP
# Method in brief: as §1
# Human ACVR2A = molecular target: T2, Human ACVR2A (human, UniProt P27037 20-135, limits assumed); experiment: ELISA
# T2 construct: also called activin receptor, type II A
# T2 sequence (P27037 20-135 limits assumed): as the sequence (P27038 20-135 limits assumed) above, with R20K, I73V counted along it
# Method in brief: as §1
# Further: test concentration or dose not given here.
Binder,optical density (Goat anti-Human Kappa) [OD],optical density (Mouse ACVR2A) [OD],optical density (Human ACVR2A) [OD]
B1,3.63,3.32,3.13
B2,3.61,3.02,2.9
B3,3.72,3.19,3.06
B4,3.43,2.34,2.14
B5,3.32,2.69,2.37
B6,3.48,2.74,2.57
B7,3.44,2.75,2.58
B8,3.54,3.34,3.25
B9,3.5,3.56,3.23
B10,3.38,2.91,2.98
B11,3.57,3.74,3.64
B12,3.53,3.44,3.29
B13,3.59,2.97,3.05
B14,3.67,3.23,3.05
B15,3.56,3.55,3.21
B16,3.47,3.42,3.28
B17,3.62,2.96,2.86
B18,3.6,3.56,3.45

Binder,optical density (Goat anti-Human Kappa) [OD],optical density (Mouse ACVR2A) [OD],optical density (Human ACVR2A) [OD]
B19,3.62,3.38,3.29
B20,3.38,2.79,2.72
B21,3.6,3.74,3.59
B22,2.65,1.88,1.77
B23,3.51,2.64,2.36
B24,3.56,3.35,3.07
B25,3.44,3.67,3.57
B26,3.66,3.37,3.2
B27,3.57,3.77,3.59
B28,3.48,2.25,1.97
B29,3.53,3.1,3.04
B30,3.51,3.07,3.11
B31,3.11,2.97,2.73
B32,3.69,3.2,2.89
B33,3.54,2.91,2.76
B34,3.52,3.53,3.45
B35,2.59,3.06,3.03
B36,3.67,2.69,2.46

# Reference: patent US20210380703A1 (RIGEL PHARMACEUTICALS, published 2021)
